Reference: US6368811 (VLAAMS INTERUNIVERSITAIR INSTITUUT VOOR BIOTECHNOLOGIE, dated 2002)

B1: first PDZ domain of sycl alone fused to Gal4 activating domain (other, not shown: large carriers)
chain: VGIRRAEIKQGIREVILCKDQDGKIGLRLKSIDNGIFVQLVQANSPASLVGLRFGDQVLQINGENCAGWSSDKAHKVLKQAFGEKITMTIRDR
notes: also called PDZ-1 alone; either of the two PDZ domains alone
B2: N-terminal domain of sycl alone fused to Gal4 activating domain (other, not shown: large carriers)
chain: MSLYPSLEDLKVDKVIQAQTAFSANPANPAILSEASAPIPHDGNLYPRLYPELSQYMGLSLNEEEIRASVAVVSGAPLQGQLVARPSSINYMVAPVTGNDVGIRRAEIKQGIR
notes: also called The N-terminal domain alone
B3: GST-sycl M92 (sycl sequence starting at M92) fusion protein (other)
chain: MVAPVTGNDVGIRRAEIKQGIREVILCKDQDGKIGLRLKSIDNGIFVQLVQANSPASLVGLRFGDQVLQINGENCAGWSSDKAHKVLKQAFGEKITMTIRDRPFERTITMHKDSTGHVGFIFKNGKITSIVKDSSAARNGLLTEHNICEINGQNVIGLKDSQIADILSTSGTVVTITIMPAFIFEHIIKRMAPSIMKSLMDHTIPEV
notes: Expressed in E. coli BL21; not shown: glutathione S-transferase (GST) as encoded by vector pGEX-5X-2
B4: second PDZ domain of sycl alone fused to Gal4 activating domain (other, not shown: large carriers)
chain: PFERTITMHKDSTGHVGFIFKNGKITSIVKDSSAARNGLLTEHNICEINGQNVIGLKDSQIADILSTSGTVVTITIMPAFI
notes: also called PDZ-2 alone; either of the two PDZ domains alone

Columns and labels:
[1] = biological target: T1, syndecan-3 full length cytoplasmic domain fused to the Gal4 DNA-binding domain (UniProt P04386 1-147; O75056 410-442); assay: yeast two-hybrid
T1 construct: also called Gal4-syndecan bait
Excerpt: (§1) The yeast two-hybrid system (Chien et al, 1991; P.N.A.S., 88, 9578–9582) was used to identify the domains of sycl and the residues in the syndecan cytoplasmic domains that are responsible for the syndecan-sycl interaction. Different parts of the original clone (3p11) and of the sycl cDNA were subcloned in the pGAD10 vector (Clontech Laboratories), to code for fusions between the activating domain of Gal4 (Gal4 AD) and various full length, truncated, deleted, point-mutated, or epitope-tagged versions of sycl. […] But a requirement for paired PDZ domains (for instance two PDZ1 or two PDZ2 domains) has also been observed for the interactions of the GRIP adaptor protein with AMPA receptors 12 and the interaction of hDlg with the cytoplasmic domain of the Shaker-type K+channel.
(§2) Baits, comprising at least a cytoplasmic domain FYA (corresponds to Phe-Tyr-Ala) as C-terminal sequence of syndecans fused in frame to the DNA-binding domain of Gal4, were constructed by PCR, using the BamHI/SalI restriction sites of the pAS2 vector (Clontech Laboratories), and used to screen a human liver cDNA library (Clontech Laboratories) cloned in pGAD10. The pAS2 plasmids and library were cotransfected in CG1945 yeast cells, and positive clones were selected on triple minus plates (Leu-, Trp-, His-) and assayed for b-galactosidase activity. Positive cDNA clones were cotransfected with all four bait vectors and with the original pAS2 vector cells to confirm the interaction.

[2] = biological target: T2, syndecan-2 full length cytoplasmic domain fused to the Gal4 DNA-binding domain (UniProt P04386 1-147; P34741 170-201); assay: yeast two-hybrid
T2 construct: also called Gal4-syndecan bait
Excerpt: as §1, §2

[3] = biological target: T3, GST (glutathione S-transferase) itself (UniProt P08515 1-218 = GST); assay: ligand blot
T3 construct: Control; also called isolated GST-moiety
T3 sequence (P08515 whole entry): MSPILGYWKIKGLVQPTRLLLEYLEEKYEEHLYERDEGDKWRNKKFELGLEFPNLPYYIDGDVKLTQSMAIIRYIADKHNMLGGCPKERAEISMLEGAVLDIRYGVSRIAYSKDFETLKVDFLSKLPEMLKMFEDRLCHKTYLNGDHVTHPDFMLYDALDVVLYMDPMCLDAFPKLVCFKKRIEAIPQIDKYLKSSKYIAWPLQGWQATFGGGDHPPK

[4] = biological target: the molecule itself; assay: ligand blot

Binder	binding result [1]	binding result [2]	binding result [3]	binding result [4]
B1	no binding	no binding		
B2	no binding	no binding		
B3			no binding	no binding
B4	no binding	no binding		
